The target in experiment [1] is endogenous EGFR expressed in COS7 cells. Nature of the experiment: diffusion coefficient change of endogenous EGFR (labelled Fab probe), COS7 cells.
Experiment [2] shares this target. Kind of experiment: diffusion coefficient of endogenous EGFR after against before cetuximab, COS7 cells.
For experiment [3] the target is unchanged. Nature of the experiment: diffusion coefficient change of endogenous EGFR (Alexa Fluor 647 Fab of mAb 199.12 as probe) in a COS7 cell, 20 µg/ml cetuximab.

For the substance cetuximab (antibody), the change in diffusion coefficient (%) in experiment [1] and in experiment [3] was 40% throughout. The same substance had a Dc2 value as percent of Dc1 value in experiment [2] of 60%.
